Key:
[1] = target: T1, natural human IL-12 receptor on IL-12R positive human cells (human, UniProt P42701 24-662); test: steady state 125I-IL-12 binding to YT cells, Scatchard, site 1 of 2
T1 construct: whole, on cells; IL-12 sees up to 3 classes of sites on these cells; also called natural IL-12R

[2] = target: T2, human IL-12 receptor subunit stably expressed on murine CTLL cells (human); test: IL-12 binding to murine CTLL cells stably expressing the IL-12 receptor subunit
T2 construct: CTLL transfectants express only receptor subunit monomers; also called CTLL transfectant; CTLL cell transfectant

[3] = target: T3, recombinant human IL-12 receptor (clone No. 5, SEQ ID NO:2) expressed in COS cells (human); test: steady state binding of 125I-IL-12 to COS cells expressing rIL-12R, Scatchard (Figure 4A)
T3 construct: 662 amino acid precursor; signal peptide cleavage is only predicted (after Gln20, Ala23 or Cys24); On COS cells present as monomers and disulfide-bonded dimers/oligomers; also called rIL-12R; human rIL-12R

[4] = target: T1, natural human IL-12 receptor on IL-12R …; test: steady state 125I-IL-12 binding to PHA-PBMC (5-7 days), Scatchard, site 1 of 3
[5] = target: T3, recombinant human IL-12 receptor (clone …); test: equilibrium binding of labelled human IL-12 to COS cells expressing clone 5, Scatchard, single site (Figure 19A)
[6] = target: T4, detergent solubilized IL-12R from IL-12R positive human cells (human, UniProt P42701 24-662); test: steady state binding of 125I-IL-12 to IL-12R immunoprecipitated by immobilized 2-4E6 from detergent extract of K6 cells, Scatchard
T4 construct: Whole natural receptor protein in detergent extract, not a truncated soluble form; also called soluble IL-12R; approximately 90 kDa protein

[7] = target: T1, natural human IL-12 receptor on IL-12R …; test: steady state 125I-IL-12 binding to K6 cells, Scatchard, site 3 of 3
[8] = target: T1, natural human IL-12 receptor on IL-12R …; test: steady state 125I-IL-12 binding to PHA-PBMC (5-7 days), Scatchard, site 3 of 3
[9] = target: T1, natural human IL-12 receptor on IL-12R …; test: steady state 125I-IL-12 binding to K6 cells, Scatchard, site 2 of 3
[10] = target: T1, natural human IL-12 receptor on IL-12R …; test: steady state 125I-IL-12 binding to Kit-225 cells, Scatchard, site 2 of 3
[11] = target: T1, natural human IL-12 receptor on IL-12R …; test: steady state 125I-IL-12 binding to K6 cells, Scatchard, site 1 of 3
[12] = target: T1, natural human IL-12 receptor on IL-12R …; test: steady state 125I-IL-12 binding to YT cells, Scatchard, site 2 of 2
[13] = target: T1, natural human IL-12 receptor on IL-12R …; test: steady state 125I-IL-12 binding to Kit-225 cells, Scatchard, site 3 of 3
[14] = target: T1, natural human IL-12 receptor on IL-12R …; test: steady state 125I-IL-12 binding to Kit-225 cells, Scatchard, site 1 of 3
[15] = target: T1, natural human IL-12 receptor on IL-12R …; test: steady state 125I-IL-12 binding to PHA-PBMC (5-7 days), Scatchard, site 2 of 3

Kd [1]: 0.006 nM | Kd [2]: ≥ 50 nM | Kd [3]: 2 to 6 nM | Kd [4]: 0.018 nM | Kd [5]: 3.4 nM | Kd [6]: 0.188 nM | Kd [7]: 2.4 nM | Kd [8]: 1.8 nM | Kd [9]: 0.057 nM | Kd [10]: 0.21 nM | Kd [11]: 0.016 nM | Kd [12]: 0.109 nM | Kd [13]: 2.36 nM | Kd [14]: 0.023 nM | Kd [15]: 0.084 nM
B1: Recombinant human IL-12 (ligand)
chain 1: RNLPVATPDPGMFPCLHHSQNLLRAVSNMLQKARQTLEFYPCTSEEIDHEDITKDKTSTVEACLPLELTKNESCLNSRETSFITNGSCLASRKTSFMMALCLSSIYEDLKMYQVEFKTMNAKLLMDPKRQIFLDQNMLAVIDELMQALNFNSETVPQKSSLEEPDFYKTKIKLCILLHAFRIRAVTIDRVMSYLNAS
chain 2: IWELKKDVYVVELDWYPDAPGEMVVLTCDTPEEDGITWTLDQSSEVLGSGKTLTIQVKEFGDAGQYTCHKGGEVLSHSLLLLHKKEDGIWSTDILKDQKEPKNKTFLRCEAKNYSGRFTCWWLTTISTDLTFSVKSSRGSSDPQGVTCGAATLSAERVRGDNKEYEYSVECQEDSACPAAEESLPIEVMVDAVHKLKYENYTSSFFIRDIIKPDPPKNLQLKPLKNSRQVEVSWEYPDTWSTPHSYFSLTFCVQVQGKSKREKKDRVFTDKTSATVICRKNASISVRAQDRYYSSSWSEWASVPCS
modifications: ¹²⁵I label (Iodogen method) where used as tracer
notes: 75-KDa heterodimer of p35 and p40; also called HuIL-12; HUIL-12

From patent EP0638644A1 (F. HOFFMANN-LA ROCHE AG, dated 1995)
